What was measured:
[1] = biological target: MET pY1313 phosphopeptide, rhodamine-labelled; assay: fluorescence polarisation; saturation binding in solution: rhodamine peptide fixed at 10 nM, protein titrated 0.002-10 uM, 20 min at room temperature; assay buffer 20 mM HEPES, 100 mM KCl, 0.1% Tween-20, 5 mM DTT, pH 7.8; apparent KD
[2] = biological target: ErbB1 pY801 phosphopeptide, rhodamine-labelled (human); assay: as above
[3] = biological target: phosphopeptides corresponding to ErbB4 intracellular tyrosine sites (human); assay: fluorescence polarisation; saturation binding in solution; rhodamine-labeled peptide fixed at 10 nM, protein titrated 0.002-10 µM (twelve two-fold dilutions); 20 minutes at room temperature in the dark; assay buffer 20 mM HEPES, 100 mM KCl, 0.1% Tween-20, 5 mM DTT, pH 7.8; apparent KD; assay detection threshold of 20 µM
[4] = biological target: phosphopeptides corresponding to ErbB1 intracellular tyrosine sites (human); assay: as above
[5] = biological target: phosphopeptides corresponding to ErbB2 intracellular tyrosine sites (human); assay: as above
[6] = biological target: ErbB4 pY906 phosphopeptide, rhodamine-labelled (human); assay: fluorescence polarisation; saturation binding in solution: rhodamine peptide fixed at 10 nM, protein titrated 0.002-10 uM, 20 min at room temperature; assay buffer 20 mM HEPES, 100 mM KCl, 0.1% Tween-20, 5 mM DTT, pH 7.8; apparent KD

B1: TNS3 SH2 domain (domain or fragment)
chain: WYKADISREQAIAMLKDKEPGSFIVRDSHSFRGAYGLAMKVATPPPSVLQLNKKAGDLANELVRHFLIECTPKGVRLKGCSNEPYFGSLTALVCQHSITPLALPCKLLIPE
**Q.** Which Kd [1] does the source give for B1 here?
**A.** 5890 nM

**Q.** And the Kd [2]?
**A.** 5350 nM

B2: VAV2 SH2 domain (domain or fragment)
chain: WFAGNMERQQTDNLLKSHASGTYLIRERPAEAERFAISIKFNDEVKHIKVVEKDNWIHITEAKKFDSLLELVEYYQCHSLKESFKQLDTTLKYPY
**Q.** B2 was tested. Which Kd [1] did it give?
**A.** 17000 nM

B3: GRAP2 SH2 domain (domain or fragment)
chain: WFHEGLSRHQAENLLMGKEVGFFIIRASQSSPGDFSISVRHEDDVQHFKVMRDNKGNYFLWTEKFPSLNKLVDYYRTNSISRQKQIFLRDRT
**Q.** How did the Kd [3] turn out when B3 was run?
**A.** 1000 nM

**Q.** What about the Kd [4] of the same binder?
**A.** 1000 nM

**Q.** What about the Kd [5] of the same binder?
**A.** 1000 nM

B4: SHC3 SH2 domain (domain or fragment)
chain: WYQGEMSRKEAEGLLEKDGDFLVRKSTTNPGSFVLTGMHNGQAKHLLLVDPEGTIRTKDRVFDSISHLINHHLESSLPIVSAGSELCLQQPV
**Q.** For B4, which Kd [6] is on record?
**A.** 540 nM
